Test: yeast display, Sf9 membrane polyspecificity reagent, FACS + sequencing; frameworks hold sequencing errors
Summary of the method: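 Synthetic nanobody libraries on Saccharomyces cerevisiae BJ5465 were galactose-induced for 36–48 hours, stained 1 hour at 4 °C with 10% biotinylated, detergent-solubilized Sf9 membrane reagent and enriched on streptavidin microbeads. FACS then separated cells into low and high (top ~1%) gates by anti-HA (expression) and streptavidin (reagent binding) fluorescence. Genes were colony-PCR amplified, MiSeq 2 × 250 sequenced and CDR-length filtered. A clone's polyreactivity label is that of its gate of origin.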

Sequence	polyreactivity (PSR sort gate)
QVQLVESGGGLVQAGGSLRLSCAASGTIFSVNAMGWYRQRLGKKGSWWPLFLTLLPSTYYADSVKARFTISRDNAKNTVYLQMNSLKPEDTAVYYCNAVYSVDFPTPTSDGDPDGFDYWGQGTQVTVSS	low polyreactivity
QVQLVESGGGLVQAGGSLRLSCAASGSTFQFYAMGWYRQAPGKEREFVAAITTRSGSTYYADSVKGRFTISRDTAKNTVYLQMNSQKPEDTAVYYCAAYIYGHSSDSVRYEYWGQGTQVTVSS	low polyreactivity
QVQLVESGGGLVQAGGSLRLSCAASGLIFKYNAMGWYRHAPGKERELVAAISTSGGSTYYADSVKGRFTISRDNAKNTVYLQMNSLKPEDNAVYFCNAVAGRPFRYYYWGQGTQVTVSS	high polyreactivity
QVQLVESGGGLVQAGGTLRLSCAASGGTSRSYAMVWYRQAPGKERELVAAISWRGGRTYYADSVKGRFTISRDNAKNTVYLQMNSLKPEDTAVYYCAARQYSQETYDYWGQGSQVTVSS	high polyreactivity
QVQLVESGGGLVQAGGSLRLSCAASGRTIYYYAMGWYRQAPGKEREFVAAISWHGGSTYYADSVKGRFTISRDNAKNNVYLQMNSLKPEDTAVYYCAADIYLRGFHYDYWGQGTQVTVSS	low polyreactivity
QVQLVESGGGLVQAGGSLRLSCAASGRTSKVYAMGWYRQAPGKERELVARITSSGVRTYYADSVKGRFTISRDNAKNTVYLQMNSLKPEDTAVYYCAKDARALWLHSGIYDYWGQGTQVTVSS	low polyreactivity
QVQLVESGGGLVQAGGSLRLSCAPSGFIFRLNGMGWYIQAPGKERELVATIDSGSSTNYADSVKGRFTISRDNAKNTVYLQMNSLKPEDTAVYYCAAVVISYYTHGDYDYWGQGTQVTVSS	low polyreactivity
QVQLVESGGGLVQAGGSLRLSCAASGSIFFSYAMGWYRKAPGKERELVAAIDYSGGGTYYADSVKGRFTISRDNAKNTVYLQMNSLKPEDTAVYYCKSDTEVWADTFISYRALNYWGQGTQVTVSS	low polyreactivity
QVQLVESGGGLVQAGGSLRLSCAASVIIISYYAIGWYRQAPGKERELVAAITRGGGRTYYADSVKGRFTISRDNAKNTVYLQMNSLKPEDTAVYYCKALSRYVENDYWGQGTQVTVSS	high polyreactivity
QVQLVESGGGLVQAGGSLRLSCAASGFTFYRYGMGWYRPPPGKERELVAAINNDGTTNYADSVKGRFTISRDNAKNTVYLQLNSLKPEDTAVYYCAADYYRGRYSYRYDYWGQGTQVTVSS	low polyreactivity
QVQLVESGGGLVQAGGSLRLSCAASGSTFYVNTMGWYRQAPGKERELVAAITDSGVGTYADSVKGRFTISRDNAKNTVYLQMNSLKPEDTAVYYCAADGVTRDYDYWGQGTQVTVSS	low polyreactivity
QVQLVESGGGLVQAGGSLRLSCAPSGRNYDRNAMGWYRQAPGKERELVARIDPGDDTNYADSVKGRFTISRDNAKNTVYLQMNSRKPEDTAVYDCASDPDYFLYRTAYYEFDYWGQGTQVTVSS	low polyreactivity
QVQLQESDGGLVQAGGSLRLSCAASGSISPQYYMGWYRQAPGKEREFVAISKGTTTYYADSVKGRLTISRVNAKNTVYLQMNSLKPEDTAVYCCAAVRWLQKVHAYWDQGTQVTVSS	low polyreactivity
QVQLEESGGGLVQAGGSHRLSCAASGSIFGGNAMGWYRQAPGKERELVAAITQSGGRTYYADSVKGRCTISRDTAKNTVYLQMNSLKPEDTAVYYCNRVYKSQTTDSYPLSYYYWGQGTQVTVSS	high polyreactivity
QVQLVESGGGLVQAGGSLRLSCAASGLTFGSYAMGWYRQAPGKERELVAAITWSGGSTYYADSVKGRFTISRDNAKNTVYLQMNSLKPEDTAVYYCAVYSTEYKLLWGGIAYDYWGQGTQVTVSS	low polyreactivity
QVQLVESGGGLVQAGGSLRLSCAASGSTFHLYAMGWNRQAPGKEREFVAAIRGRGGNTYADSVKGRFTISRDNAKNSGYLQMNSLKPEDTAVYYCAARTHYDSDYWGQGTQVTVSS	low polyreactivity
QVQLVESGGGLVQPGGSLRLRCAASGSTLAYYTMGWSRHAPGKEMELVAAISGSGGSTYYADSVKGRFTIARDNAKNTVYLQMNSLKPEDSAVYYSIAVLYYYTSSEYDYWGQGTQVTVSS	high polyreactivity
QVQLVESGGGLVQAGGSLRLSCAASGFTFSFYAMGWYRQAPGKERELVAGISKRGGSTYYADSVKGRFTISRDNAKKTVFLQMNSLKPEDTAVYYCARSYYTNGNALKRDYWGQGTQVTVSS	high polyreactivity
QVQLVESGGGLVQAGGSLRLSCAASGRILYRYAMGWYRQAPGKERELVADISWSGGSRYYADSVKGRFTISRDNAKNTVYLQMNSLKPEDTAVYYCAAFRLWYSTFDYWGQGTQVTVSS	high polyreactivity
QVQLVESGGGLVQAGGSLRLICDASGRTFPPYAMGWYRQAPGKERELVAAISRRAGTTYYADSVKGRFTISRDNAKNTDYLQMNSLKPEDTAVYYCAADTPVWSGYWYDYWGQGTQVTVSS	low polyreactivity
RVQLVESGGGLVQAGGSLRLSCAASGSTFENYAMGWYRQAPGKERELVAAISSGGSTYYADSVKGRFTISRDNAKNTVYLQMNSLKPEDTAVYYCAAELEYWLYGYGYYYWGQGTQVTVSS	high polyreactivity
QVQLVESGGGLVQAGGSLRLSCAASGLTFVYYAMGWSRPAPGKERELVAAISRGGTTYYADSVKGRFTISRDNAKNTVYLQMNSLKPEDTAVYYCARVGRYRYEWGQGTQVTVSS	high polyreactivity

Sequence	polyreactivity (PSR sort gate)
QVQLVESGGGLVQAGGSLRLSCAASGLIFIQYAMGWYRQAPGKEREFVAAISWSGTSTHYADSVKGRFTISRDNAKNTVYFQMNSLKPEDTAVYYCAAAKTGRGRGTTGYGYWGQGTLVTVSS	high polyreactivity
QVQLVESGGGLVQAGGSLRLSCAASGSTFRYNAMGWYRQAPGKERELVAAINRGGGTDYADSVKGRFTISRDNAKNTVYLQMNSLKPEDTAVYYCAKQFVSYNRWLAYGYWGQGTQVTVSS	low polyreactivity
QVKLVESVGGLVQAGGSLRFSCAASANTFYYYAMGWYREAPGNDMELVASITWRVGDTYYADSVKGRFTIARDNAKNTVYLQMNSLKPEDTAVYYCAKPRLGRYDSLSYLGDYPGYDYWGQGTQVTVSS	low polyreactivity
QVQLEESGGGLVQAGGSLRLICPASGRTFIRKAMGRYRQAPGKERELVASIRWSGGSTYYADSVKGRFTISRDNAKNTVYLQMNSLKTEDTAVYYCAASRWRPLERGTTWLHDYWGQGSQVTVSS	low polyreactivity
QVQLVESGGGLVQAGGSLRLSCAASGRTFVGNAMGWYRQAPGKERELVAAISGRGGSTKYADSVKGRFTISRDYAKNTVYLQMNSLKPEYTAVYYCNAPRNYYKNRAYEYWGQGTKVTVSS	high polyreactivity
QVQLVESGGGLVQAGGSLRLTCAASGSIFYAYAMGWYRQAPGKERELVAAISGRGGSTYYADSVTGRFTISRDNAKKTVYFQMNSLKPEDTAVYYCAAERRTFYGLGVHYWGQVTQVTVSS	high polyreactivity
QVQLVESWGGLVQAGGSLRLSCAASGRIFGYYAMGWSRQAPGKERELVAVISSGGSTYADSVKGRFTISRDNAKNTVYLQMNSLKPEDTAFYYCAARNYWSSYRTYRSRYDYWGQGTQVTVSS	high polyreactivity
QVQLVESGGGLVQAGGSLRLSCAASGFTFVFYAMGWYRQAPGKERELVAAISSRGGSTYYADSVKGRFTISRDNAKNTVDLQMNSLKPEDTAVYYCNVVSTYWTTYEEYYWGQGTQVTVSS	high polyreactivity
QVQLVESGGGLVQAGGSLRLSCAASGSIFEGNAMGWYRQAPGKEREFVAAITKRGGSTYYADSVKGRFTISRDNAKITVYLQMNSLKTEDTAVYYCAKGYRRVFGPFYYWGQGTQVTVSS	low polyreactivity
QVQLVESGGGLVQAGGSLRLSCAASEGWYRQAPGKERELVAAISYIGGSTYYADSVKGRFTISRDNAKNTVYLQMNSLKPEDTAVYYCAKGYPDPQWGGVLAYDYWGQGTQVTVSS	low polyreactivity
QVQLVESVGGLVQAGGSLRLSCAPSGRIFGKYAMGWYRQAPGKERELVADITWGGGSTNYADSVKGRFTISRDNAKNTVYLQMNSLNPDDTAVYYCATGFYYYLTKTIPYEYEYWGQGTQVTVSS	low polyreactivity
QVQLVESGGGLVQAGGSLRLSCAASGRTFRRYVMGWYRQAPGKERELVAAIRWTGGSTYYADSVKGRFTISRDIAKNTVYLQMNSLKPEDTAVYYWAASSYICYGYWGQGTQVTVSS	high polyreactivity
QVQLVESGGGLVQAGCSLRLSCAASGFIFVRNAMGWYRQAPGKERELVAAISSSGGSTNYADSVKGRFTISRDNAKNTVYLQMNSLKPEDTAVYYCNAQRYYDYWGQGTQVTVSS	high polyreactivity
QVKIVESGGGLVQAGGSLRLSCAATGITFAWYAMGWYRQAPGKERELVAAITWSGDSTYYADSVKGRFTISRDNAKNTVYLQMKSLKPEDTAVYYCAAEGLVFWFGTPYDYWGQGTQVTVSS	high polyreactivity
QVQLVESGGGLVQAGGSLRLSCAASGFTFYRNDIGWYRQAPGKERELVAAITFSGGITYYADSVKGRFTISRDNAKNTVYLQMNSLKAEDTAVYYCAAEGVGAARVYQGGEYNYWGQGTQVTVSS	low polyreactivity
QVQLVESGGGLVQAGGSLRLSCAASGRTFWGYAMGWYRQAPGKERELVAAISLSGGRTNYADSVKGRFTISRDNAKNTVYLQMNSLKPEDTAVYYCAADKRPDGRMDYWGQGTQVTVSS	high polyreactivity
QVQHVESGGGLVQAGGSLRLSCAASGFIFTANAMGWYRQAPGKERELVAGIRSGSSTYYADSVKGRFTISRDNAKNTVYLQLNSLKPEDTAVYYCNAEKFNFIYAYEYWGKGTQVTVSS	low polyreactivity
QVQLVESGGGLVQAGGSLRLSCAASGLIFAHYAMGWYRQAPGTERELVAGITSGGSTNYADSVKGRFTISRDNAKNTVYLQMNSLKPEDTAVYYCNADRAGFLGFYLYDYWGQGTQVTVSS	low polyreactivity
QVQLVESGGGLVQAGGSLRLSCAASGFTLGWYAMGWYRQAPGKERELVAAISRSGGSTYYADSVKGRFTISRDNAKNTVYLQMNCLKPEDTGVYYCAAEVNYAGRAVWSYYWGQGTQVTVSW	high polyreactivity
QVQLVESGGGLVQAGGSLRLSCAASGRTFGPYTMGWYRQAPGKEREFVAAINSSGSRTYYADSVKGRFTISRDNAKNTVYLKINSLKPEDTGVYYCAAEAKWYYSWSYPYEGDYWGQGTQVTVSS	low polyreactivity
QVQLVESGGGLVQAGGSLRLSCAASGSTFYSNAMGWYRQAPGKERELVAAINYSGGRTYYADSVKGRFTLSRDNAKNTVYLQMNSLKPEDTAVYYCNAQFYNVRGYYIGEYWGQGTQVTVSS	high polyreactivity
